Experiments:
[1] = tested on: BCL2allKO HCT116 cells reconstituted with mC-BAK; assay: Endpoint FACS analysis of SYTOX Green positive cells; format: cell-based, human; conditions: average, N = 3
Experimental: (§1) We seeded cells in 24-well (100,000 cells/well), 96-well (15,000 cells/well), or 384-well (10,000 cells/well) plates coated with 10 µg/mL fibronectin. After ≥24 h of attachment and recovery, we induced cell death with Dox (up to 1000 ng/mL) and monitored SYTOX Green (25 nM) uptake by Incucyte imaging. This dye marks cells with compromised plasma membrane integrity. mC-BAK expressed before 24 h, which coincided with detectable cell death. We monitored Incucyte imaging for up to 48 h, followed by endpoint FACS analysis to measure the extent of cell death based on SYTOX Green positive cells on FACSCalibur systems (BD Biosciences). As expected, cells with low mCherry fluorescence were refractory to cell death.

[2] = tested on: BCL2allKO HCT116 cells reconstituted with Dox-inducible mC-BAK; assay: Dox-induced cell death by IncuCyte imaging of SYTOX Green uptake (autoactivation); format: cell-based, human; conditions: for SYTOX Green +ve counts/confluence AUC of kinetic traces: Fig 3d; for Dox-induced cell death: IncuCyte SYTOX Green up to 48 h; for AUC (48 hr) of SYTOX Green counts/confluence: mC-BAK BCL2allKO HCT116 + Dox + qVD, average, N = 3
Source text: For mammalian cell culture experiments, we cloned the full length human BAK cDNA into pCR 2.1 TOPO vector, mutated BAK as needed, and PCR amplified the BAK gene for cloning into the BamHI and NotI sites of pRETROX mCherry vector for retroviral transduction. Amplification and mutagenesis primers are included in Supplementary Table 4. To test direct BAK activation and BAK autoactivation in cells, we produced cells stably expressing mCherry-human BAK (mC-BAK) ± human BID (BID) on a genetic background devoid of the entire BCL-2 family repertoire (all 17 BCL-2 genes), BCL2allKO HCT116, as described by the Xu Luo laboratory. We expressed WT and mutant mC-BAK using the doxycycline (Dox)-based inducible Tet-On 3G retroviral system from the pRetroX-TRE3G-Puro^R in BCL2allKO HCT116 cells expressing the Tet3G from pRetroX-Tet3G-Blast^R. We selected cells with puromycin (2.5 µg/mL) and blasticidin (2 µg/mL) starting at 2 days after retroviral transduction. To enrich for populations of cells that express mC-BAK, we treated cells with low Dox dose (25 ng/mL) and fluorescence-activated cell sorted (FACS) the mCherry positive cells. We performed the enrichment twice before cell death analysis. One caveat of our cellular system is tagging BAK with N-terminal mCherry, which may affect folding efficiency, degradation, and BAK interactome.
as §1

[3] = tested on: BCL2allKO HCT116 cells expressing mC-BAK and BID; assay: Dox + TRAIL + CHX induced cell death by IncuCyte imaging of SYTOX Green uptake (direct activation); format: cell-based, human; conditions: TRAIL 200 ng/mL + CHX 0.5 µg/mL added at 6 h
Experimental: We achieved stable, constitutive expression of human BID in mC-BAK expressing BCL2allKO HCT116 by retroviral transduction based on pMX-human-BID-IRES-GFP. Amplification primers are included in Supplementary Table 4. We performed two rounds of FACS sorting gating on GFP-positive cells to enrich for populations of cells that express BID.
For coexpression of mC-BAK + BID, we treated cells with different doses of Dox for 24 h to induce expression of mC-BAK. At 6 h, we treated cells with TRAIL (200 ng/mL) + cycloheximide (CHX, 0.5 µg/mL) to promote BID activation under conditions of protein synthesis inhibition by CHX, and continued to record Incucyte imaging of SYTOX Green uptake up to 48 h. We blocked caspase activity with qVD (40 µM).

BAK [4] = assay: Dye-based thermal shift assay (SYPRO Orange); format: physicochemical, human; conditions: rebuttal
Experimental: To control for effect of mutations on protein stability, which may confound interpretation of impairment in BAK autoactivation, we measured the Tm of BAK WT and mutants (Supplementary Fig. 3f).
(§2) We carried out TSA in 20 µL reactions in 384-well PCR plate (Cat# AB1384, Thermo Fisher Scientific) in 20 mM HEPES pH 7.0, 150 mM NaCl, 2 mM DTT), SYPRO ^TM Orange (5×) and 0.25 mg/mL purified BAK. To remove air bubbles we sealed assay plates with MicroAmp Optical Adhesive, incubated them for 2–5 min, and centrifuged them (1000 × rpm). We subjected the assay plates to 25–99 °C thermal gradient with 1°/minute increment and recorded fluorescence using Applied Biosystems Quant Studio 5. We performed three experiments in quadruplicate for each sample. We performed data processing and visualization in RISE, and final data analysis in Excel and GraphPad Prism. We also carried out dye-free TSA using capillary-based Prometheus NT.48 Nano Differential Scanning Fluorimetry (Nanotemper) in the same buffer conditions with 15 μM BAK. Melting temperature (Tm) values were obtained from the first derivative of melting scans.

[5] = Liposome permeabilization by WT and mutant BAK proteins (autoactivation, or direct activation by BID BH3); format: biochemical; conditions: no BH3 peptide; liposomes with […] DGS-NTA(Ni); Fig. 1a
Experimental: Human BAK-∆TM-His6 (BAK)[26] spontaneously permeabilizes liposomes above a certain dose (>100 nM, Fig. 1a). In these dye-release assays[43]–[46], BAK is recruited via His-tag to liposomes containing 2.5 µM of the lipid 1,2-dioleoyl-sn-glycero-3-[(N-(5-amino-1-carboxypentyl)iminodiacetic acid)succinyl] (nickel salt), DGS-NTA(Ni).
To probe autoactivation with full-length BAK, we mutated hydrophobic residues at positions (0)−(6) of the BH3 to alanine or arginine, and D83, which forms the conserved salt bridge (s) with R127, to alanine (Fig. 2a). The BH3 residues participate in autoactivation from the ligand side [hydrophobic positions (0)–(5) and D83(s)] and also from the receptor groove side [hydrophobic positions (3)–(5)] (Fig. 2a). Thus, substitutions at positions (3)–(5) should affect receptor and ligand activities and are predicted to impact BAK activation more severely than mutations of positions (0)–(2), which affect only ligand activity. […] In contrast, almost all (2)–(5) and (s) missense mutants were considerably impaired in autoactivation (Fig. 2b and Supplementary Fig. 3a). […] Despite impairment in autoactivation, all missense mutants were directly activated by BID BH3 peptide, although they induced lower level of permeabilization compared to WT BAK (Fig. 2b and Supplementary Fig. 3a).
We performed liposome permeabilization assays as previously described[43]–[46]. […] (nickel salt) [DGS NTA(Ni), 2.5 μM final concentration in each assay] (Avanti Polar Lipids). We prepared 12.5 mM fluorophore; 8-aminonaphthalene-1, 3, 6-trisulfonic acid, disodium salt (ANTS) and 45 mM quencher; p-xylene-bis-pyridiniumbromide (DPX) in LUV buffer (10 mM HEPES pH 6.8, 200 mM KCl and 5 mM MgCl2). We mixed the lipid film in ANTS/DPX solution by vortexing and sonication (~15 min) followed by extrusion through polycarbonate membrane of 2 μm pore size (Avanti Polar lipids) to generate homogenous large unilamellar vesicles (LUVs). We separated LUVs from free ANTS/DPX by S500 size exclusion chromatography and stored them at 4 °C in the dark. We prepared peptide and protein dilutions in 96-well black flat bottom plates (Costar) kept on ice. ANTS release from permeabilized liposomes causes an increase in fluorescence, which we monitored at 37 °C for 90 min using a CLARIOSTAR microplate reader (BMG Labtech) set at excitation and emission wavelengths of 360 and 530 nm, respectively. We normalized the data relative to maximum and minimum fluorescence induced by 3% CHAPS and buffer controls, respectively. We quantified liposome permabilization by integrating area under curve (AUC) of normalized traces based on the Simpson’s equation, and analyzed that data in Excel and GraphPad Prism. AUC measurements reflect the kinetic and extent of liposome permeabilization and provide quantitative means for comparison between different experimental conditions (e.g., BAK mutants with gross or partial variation in activity). Variability in permeabilization of different liposomes is common and our analyses compare among conditions investigated with the same liposomes. Although the absolute permeabilization values may differ, the trends for the same conditions are always very similar between different liposomes.

BAK [6] = assay: Dye-free nano Differential Scanning Fluorimetry thermal shift assay; format: physicochemical, human; conditions: without DTT; mean of N = 3; Suppl. Fig. 7h
Experimental: Through rational design and structural analysis, we expand the list of activated BAK complexes, supporting requisite BH3 ligand-induced destabilization of helix α1 (see below).
as §2

B1: D83A (s): BAK missense mutant, autoactivation-impaired; in cells as mCherry fusion (protein)
chain: MASGQGPGPPRQECGEPALPSASEEQVAQDTEEVFRSYVFYRHQQEQEAEGVAAPADPEMVTLPLQPSSTMGQVGRQLAIIGADINRRYDSEFQTMLQHLQPTAENAYEYFTKIATSLFESGINWGRVVALLGFGYRLALHVYQHGLTGFLGQVTRFVVDFMLHHCIARWIAQRGGWVAALNLGNG
modifications: left off: His6, C-terminal, kept
notes: in cells as mCherry fusion
flow cytometry SYTOX Green counts/confluence (48 hr) ([1]; Dox 100 ng/mL): 35.2333 | flow cytometry SYTOX Green counts/confluence (48 hr) ([1]; Dox 1000 ng/mL): 43.7667 | SYTOX Green +ve counts/confluence AUC of kinetic traces ([2]; Dox 6.25 ng/mL): 251.48 | SYTOX Green +ve counts/confluence AUC of kinetic traces ([2]; Dox 6.25 ng/mL + qVD): 178.809 | SYTOX Green +ve counts/confluence AUC of kinetic traces ([2]; Dox 12.5 ng/mL): 298.87 | SYTOX Green +ve counts/confluence AUC of kinetic traces ([2]; Dox 12.5 ng/mL + qVD): 216.467 | SYTOX Green +ve counts/confluence AUC of kinetic traces ([2]; Dox 25 ng/mL): 546.446 | SYTOX Green +ve counts/confluence AUC of kinetic traces ([2]; Dox 25 ng/mL + qVD): 167.305 | SYTOX Green +ve counts/confluence AUC of kinetic traces ([2]; Dox 50 ng/mL): 973.937 | SYTOX Green +ve counts/confluence AUC of kinetic traces ([2]; Dox 50 ng/mL + qVD): 180.875 | SYTOX Green +ve counts/confluence AUC of kinetic traces ([2]; Dox 100 ng/mL): 1429.67 | SYTOX Green +ve counts/confluence AUC of kinetic traces ([2]; Dox 100 ng/mL + qVD): 197.929 | SYTOX Green +ve counts/confluence AUC of kinetic traces ([2]; Dox 500 ng/mL): 1807.16 | SYTOX Green +ve counts/confluence AUC of kinetic traces ([2]; Dox 500 ng/mL + qVD): 226.028 | SYTOX Green +ve counts/confluence AUC of kinetic traces ([2]; Dox 1000 ng/mL): 2018.82 | SYTOX Green +ve counts/confluence AUC of kinetic traces ([2]; Dox 1000 ng/mL + qVD): 223.673 | Dox-induced cell death [2]: consistently less potent at inducing apoptosis than V74A(1) | AUC (48 hr) of SYTOX Green counts/confluence ([2]; Dox 100 ng/mL): 54126.6 | AUC (48 hr) of SYTOX Green counts/confluence ([2]; Dox 1000 ng/mL): 77700.1 | fold higher expression level for similar cell death compared to V74A ([2]; mC-BAK/actin immunoblot, Fig. 3d): ~ 10 fold | cell death with Dox + TRAIL + CHX compared to Dox alone [3]: boosted the levels of cell death

B2: I81R (3): BAK missense mutant (protein, UniProt Q16611 2-211, looked up, variant I81R)
Bcl-2 homologous …: ASGQGPGPPRQECGEPALPSASEEQVAQDTEEVFRSYVFYRHQQEQEAEGVAAPADPEMVTLPLQPSSTMGQVGRQLAIRGDDINRRYDSEFQTMLQHLQPTAENAYEYFTKIATSLFESGINWGRVVALLGFGYRLALHVYQHGLTGFLGQVTRFVVDFMLHHCIARWIAQRGGWVAALNLGNGPILNVLVVLGVVLLGQFVVRRFFKS
flow cytometry SYTOX Green counts/confluence (48 hr) ([1]; Dox 100 ng/mL): 2.517 | flow cytometry SYTOX Green counts/confluence (48 hr) ([1]; Dox 1000 ng/mL): 4.75 | Dox-induced cell death [2]: inactive irrespective of Dox dose | AUC (48 hr) of SYTOX Green counts/confluence ([2]; Dox 100 ng/mL): 331.061 | AUC (48 hr) of SYTOX Green counts/confluence ([2]; Dox 1000 ng/mL): 348.847 | difference in Tm compared to WT (BAK [4]): < 2 °C

B3: WT BAK: C-terminus truncated recombinant human BAK with C-terminal 6× histidine tag (protein, UniProt Q16611 2-211, looked up)
Bcl-2 homologous …: ASGQGPGPPRQECGEPALPSASEEQVAQDTEEVFRSYVFYRHQQEQEAEGVAAPADPEMVTLPLQPSSTMGQVGRQLAIIGDDINRRYDSEFQTMLQHLQPTAENAYEYFTKIATSLFESGINWGRVVALLGFGYRLALHVYQHGLTGFLGQVTRFVVDFMLHHCIARWIAQRGGWVAALNLGNGPILNVLVVLGVVLLGQFVVRRFFKS
BAK dose above which liposomes are spontaneously permeabilized [5]: > 100 nM | Melting temperature for 3 exps, Mean (BAK [6]): 77 °C

From paper PMC8752837, “Structural basis of BAK activation in mitochondrial apoptosis initiation” (Nature Communications, 2022)
